Data taken from publication PMC5224236 (ACS Chemical Biology, 2016).
Like-named read-outs stand apart in the source and are kept apart here. Each block holds one binder with its values, some of them ahead of it.

What was measured:
Assay in all cases: SPR
[1] = target: T1, full-length wild-type p97/VCP (UniProt P55072 1-806)
[2] = target: full-length p97 A232E (MSP1 mutant) (UniProt P55072 1-806, A232E)
[3] = target: full-length p97 R155H (MSP1 mutant) (UniProt P55072 1-806, R155H)
[4] = target: T1, full-length wild-type p97/VCP; remark: listed apart in the source
[5] = target: T1, full-length wild-type p97/VCP; remark: listed apart in the source

T1 sequence (P55072 whole entry): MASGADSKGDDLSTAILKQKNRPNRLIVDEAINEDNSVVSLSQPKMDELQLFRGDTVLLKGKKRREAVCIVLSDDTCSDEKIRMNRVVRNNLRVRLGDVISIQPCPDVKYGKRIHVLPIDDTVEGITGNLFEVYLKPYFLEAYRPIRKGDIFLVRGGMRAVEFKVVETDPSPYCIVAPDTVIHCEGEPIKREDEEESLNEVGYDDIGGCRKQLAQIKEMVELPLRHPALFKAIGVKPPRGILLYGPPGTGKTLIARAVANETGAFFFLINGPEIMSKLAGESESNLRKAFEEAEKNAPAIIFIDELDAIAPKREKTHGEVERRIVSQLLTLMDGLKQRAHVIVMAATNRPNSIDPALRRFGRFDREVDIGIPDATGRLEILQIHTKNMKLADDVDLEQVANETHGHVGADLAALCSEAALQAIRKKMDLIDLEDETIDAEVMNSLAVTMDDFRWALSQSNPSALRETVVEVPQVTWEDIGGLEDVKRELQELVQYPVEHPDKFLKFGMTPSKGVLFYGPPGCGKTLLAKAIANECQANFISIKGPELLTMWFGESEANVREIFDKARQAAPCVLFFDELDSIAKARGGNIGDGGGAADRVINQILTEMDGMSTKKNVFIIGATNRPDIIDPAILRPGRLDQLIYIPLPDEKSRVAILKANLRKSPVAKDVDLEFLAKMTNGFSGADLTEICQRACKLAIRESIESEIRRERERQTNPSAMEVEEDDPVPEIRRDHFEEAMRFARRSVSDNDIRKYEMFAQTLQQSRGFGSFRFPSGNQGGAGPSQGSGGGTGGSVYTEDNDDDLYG
Chain of full-length p97 A232E (MSP1 mutant) (P55072 whole entry A232E): as the sequence (P55072 whole entry) above, with A232E counted along it
Chain of full-length p97 R155H (MSP1 mutant) (P55072 whole entry R155H): as the sequence (P55072 whole entry) above, with R155H counted along it

- KD, high-affinity site (two-site fit) [1]: 184 nM
- KD, high-affinity site (two-site fit) [2]: 21 nM
- KD, high-affinity site (two-site fit) [3]: 18 nM
B1: full-length human p47 (natural protein, UniProt Q9UNZ2 1-370, looked up)
chain: MAAERQEALREFVAVTGAEEDRARFFLESAGWDLQIALASFYEDGGDEDIVTISQATPSSVSRGTAPSDNRVTSFRDLIHDQDEDEEEEEGQRFYAGGSERSGQQIVGPPRKKSPNELVDDLFKGAKEHGAVAVERVTKSPGETSKPRPFAGGGYRLGAAPEEESAYVAGEKRQHSSQDVHVVLKLWKSGFSLDNGELRSYQDPSNAQFLESIRRGEVPAELRRLAHGGQVNLDMEDHRDEDFVKPKGAFKAFTGEGQKLGSTAPQVLSTSSPAQQAENEAKASSSILIDESEPTTNIQIRLADGGRLVQKFNHSHRISDIRLFIVDARPAMAATSFILMTTFPNKELADESQTLKEANLLNAVIVQRLT

- Kd [4]: 46 nM
- Kd [5]: 19 nM
- Kd [1]: 372 nM
B2: p37 (natural protein, human, UniProt Q14CS0 1-331, looked up)
chain: MAEGGGPEPGEQERRSSGPRPPSARDLQLALAELYEDEVKCKSSKSNRPKATVFKSPRTPPQRFYSSEHEYSGLNIVRPSTGKIVNELFKEAREHGAVPLNEATRASGDDKSKSFTGGGYRLGSSFCKRSEYIYGENQLQDVQILLKLWSNGFSLDDGELRPYNEPTNAQFLESVKRGEIPLELQRLVHGGQVNLDMEDHQDQEYIKPRLRFKAFSGEGQKLGSLTPEIVSTPSSPEEEDKSILNAVVLIDDSVPTTKIQIRLADGSRLIQRFNSTHRILDVRNFIVQSRPEFAALDFILVTSFPNKELTDESLTLLEADILNTVLLQQLK
